The values below come from paper PMC2655673.

Assay in all cases: SFM DNA tethering
The target of data set [1] is RAD50;MRE11;NBS1 (Homo sapiens;Homo sapiens;Homo sapiens) (UniProt Q92878+P49959+O60934).
Data set [2] deals with RAD50;MRE11 (Homo sapiens;Homo sapiens) (UniProt Q92878+P49959).
Data set [3] deals with RAD50;NBS1 (Homo sapiens;Homo sapiens) (UniProt Q92878+O60934).

On to 3.0-kb linear DNA fragment, for which the binding signal (% DNA in tethered complexes) in data set [1] was found to be 20; in data set [2], 16; in data set [3], 30.
